Consider two molecules from patent US20240000938A1 (published 2024).

Assay in all cases: activation reporter or marker
Assay [1] addresses T1, HA-1 variant H, HA-1(H); Rho GTPase activating protein 45 (HMHA1) peptide on HLA-A*02:01 (human).
T1 peptide: VLHDDLLEA

Assay [2] has as its target T2, HA-1(R), allelic variant; Rho GTPase activating protein 45 (HMHA1) peptide on HLA-A*02:01 (human).
T2 peptide: VLRDDLLEA

In assay [3] the target is T3, mH-Y (MiHA-Y) peptide on H-2Db (mouse).
T3 peptide: KCSRNRQYL

B1: KP7 HA-1H TCR (TCR, V domains shown)
Valpha: KNEVEQSPQNLTAQEGEFITINCSYSVGISALHWLQQHPGGGIVSLFMLSSGKKKHGRLIATINIQEKHSSLHITASHPRDSAVYICAVRSVSGAGSYQLTFGKGTKLSVIP
Vbeta: DTGVSQNPRHKITKRGQNVTFRCDPISEHNRLYWYRQTLGQGPEFLTYFQNEAQLEKSRLLSDRFSAERPKGSFSTLEIQRTEQGDSAMYLCASSIDSFNEQFFGPGTRLTVL
Consider B1, for which the figures for the binding result in assay [1] and in assay [2] were “recognises” and “no recognition”, respectively.

B2: H-Y TCR Jb2.3L (TCR, V domains shown)
Valpha: AQSVDQPDAHVTLSEGASLELRCSYSYSAAPYLFWYVQYPGQSLQFLLKYITGDTVVKGTKGFEAEFRKSNSSFNLKKSPAHWSDSAKYFCALEGQDQGGSAKLIFGEGTKLTVSS
Vbeta: EAAVTQSPRNKVAVTGGKVTLSCNQTNNHNNMYWYRQDTGHGLRLIHYSYGAGSTEKGDIPDGYKASRPSQENFSLILELATPSQTSVYFCASGDNSAETLYFGPGTRLLVL
B2: the binding result in assay [3] is given as “recognises”.
